From publication PMC9503767, “Site-Differentiated Iron–Sulfur Cluster Ligation Affects Flavin-Based Electron Bifurcation Activity” (Metabolites, 2022)

Substrate: NC(=O)C1=CN([C@@H]2O[C@H](COP(=O)(O)OP(=O)(O)OC[C@H]3O[C@@H](n4cnc5c(N)ncnc54)[C@H](OP(=O)(O)O)[C@@H]3O)[C@@H](O)[C@H]2O)C=CC1
Experiment: purified protein
Type: biochemical, Pyrococcus furiosus
Conditions: FAD; two [4Fe-4S] clusters oxidized by L-FAD

B1: NfnL (large subunit of NADH-dependent reduced-ferredoxin: NADP+ oxidoreductase NfnSL) (Pyrococcus furiosus DSM 3638) (protein)
chain: MPRLIKDRVPTPERSVGERVRDFGEVNLGYSWELALREAERCLQCPVEYAPCIKGCPVHINIPGFIKALRENRDNPSKAVREALRIIWRDNTLPAITGRVCPQEEQCEGACVVGKVGDPINIGKLERFVADYAREHGIDDELLLEEIKGIKRNGKKVAIIGAGPAGLTCAADLAKMGYEVTIYEALHQPGGVLIYGIPEFRLPKEIVKKELENLRRLGVKIETNVLVGKTITFEELREEYDAIFIGTGAGTPRIYPWPGVNLNGIYSANEFLTRINLMKAYKFPEYDTPIKVGKRVAVIGGGNTAMDAARSALRLGAEVWILYRRTRKEMTAREEEIKHAEEEGVKFMFLVTPKRFIGDENGNLKAIELEKMKLGEPDESGRRRPIPTGETFIMEFDTAIIAIGQTPNKTFLETVPGLKVDEWGRIVVDENLMTSIPGVFAGGDAIRGEATVILAMGDGRKAAKAIHQYLSKEK
notes: isolated NfnL-WT subunit
With B1 the Km was 1300 ± 100 µM, the Vmax was 3000 µM/min and the kcat was 2.3 ± 0.3 s⁻¹. For the same protein, the kcat/Km was 1700 ± 300 M⁻¹ s⁻¹.
